Article PMC8283798

The substances below were run against FcγRIIIa-V158 (high-affinity FcγIIIa receptor allele) (human) (UniProt P08637) (assay: ELISA).
For “G2 (11), nonfucosylated Herceptin glycoform carrying the biantennary complex-type N-glycan (antibody)”, the EC50 was 1.21 nM. Work on “G2(Az)F (2), core 6-azido-fucosylated Herceptin carrying a complex-type N-glycan (antibody)” yielded an EC50 of 2.86 nM. “G2(NH2)F (3), core 6-amino-fucosylated Herceptin (antibody)” showed an EC50 of 9.25 nM. Substance “G2(OH- triazol)F (4), core 6-triazole-fucosylated Herceptin (antibody)” has an EC50 of 18.2 nM. “G2Ara (6), core D-arabinosylated Herceptin (antibody)” was tested, and the EC50 was 39.7 nM. “G2F (1), core-fucosylated Herceptin glycoform carrying the biantennary complex-type N-glycan (antibody)” gave an EC50 of 42.6 nM. “G2Gal (5), core L-galactosylated Herceptin (antibody)” was tested, and the EC50 was 7.19 nM.

The substances below were run against FcγRIIIa-F158 (low-affinity FcγIIIa receptor allele) (human) (UniProt P08637) (assay: ELISA).
In the case of “G2 (11), nonfucosylated Herceptin glycoform carrying the biantennary complex-type N-glycan (antibody; other documents disagree on this pair)”, the EC50 is reported as 11.5 nM. With “G2(Az)F (2), core 6-azido-fucosylated Herceptin carrying a complex-type N-glycan (antibody; other documents disagree on this pair)” the EC50 was 12.8 nM. “G2(NH2)F (3), core 6-amino-fucosylated Herceptin (antibody; other documents disagree on this pair)” showed an EC50 of 89.3 nM. Substance “G2(OH- triazol)F (4), core 6-triazole-fucosylated Herceptin (antibody; other documents disagree on this pair)” has an EC50 of 81.4 nM. In the case of “G2Ara (6), core D-arabinosylated Herceptin (antibody; other documents disagree on this pair)”, the EC50 is reported as 1430 nM. “G2F (1), core-fucosylated Herceptin glycoform carrying the biantennary complex-type N-glycan (antibody; other documents disagree on this pair)” showed an EC50 of 1570 nM. Substance “G2Gal (5), core L-galactosylated Herceptin (antibody; other documents disagree on this pair)” has an EC50 of 84.6 nM.
